{
  "source": "patent US20210122826A1",
  "about": "(MIT, published 2021)",
  "binders": {"B1": {"name": "KM12.3.2 (antibody, V domains shown)", "VH": "EVQLVESGGGLVQPGGSLRLSCAASGFTFSSYAMSWIRQAPGKGLEWVSAISGSGGSIYYADSVKGRFTISRDNSKNTLYLQMDSLRAEDTAVYYCARGYSDSYFYGPYYTFDYWGQGTLVTVSS", "VL": "not shown"}},
  "target": "T1, human CD161 (human, UniProt Q12918 1-225)",
  "T1 construct": "UniProt Q12918; also called hCD161; KLRB1",
  "assay": "blocking assay by flow cytometry: 500 nM biCLEC2D on Jurkat hCD161+ cells with 1, 10 or 100 nM antibody, SA-AF647; blocked ligand biCLEC2D; control 500 nM biCLEC2D on Jurkat WT",
  "data": [
    {"binder": "B1", "values": [
      {"measurement": "binding result", "result": "binds"}
    ]}
  ]
}
